Source: US20110189084A1, “Method for Treating Liver Disorders with Receptor Associated Protein (RAP) Peptide-Fucosidase Inhibitor Conjugates” (RAPTOR PHARMACEUTICAL INC., priority 2010, published 2011)
One block for each molecule: values may come before it. Bridge positions count the residues as written; N and C are the ends. Ends that are not written are not given here.

Columns and labels:
LRP1 = biological target: T1, LRP1 (Homo sapiens, UniProt Q07954); conditions: read-out: affinity for LRP1; cited from earlier work
T1 sequence (Q07954 786-1165 limits assumed): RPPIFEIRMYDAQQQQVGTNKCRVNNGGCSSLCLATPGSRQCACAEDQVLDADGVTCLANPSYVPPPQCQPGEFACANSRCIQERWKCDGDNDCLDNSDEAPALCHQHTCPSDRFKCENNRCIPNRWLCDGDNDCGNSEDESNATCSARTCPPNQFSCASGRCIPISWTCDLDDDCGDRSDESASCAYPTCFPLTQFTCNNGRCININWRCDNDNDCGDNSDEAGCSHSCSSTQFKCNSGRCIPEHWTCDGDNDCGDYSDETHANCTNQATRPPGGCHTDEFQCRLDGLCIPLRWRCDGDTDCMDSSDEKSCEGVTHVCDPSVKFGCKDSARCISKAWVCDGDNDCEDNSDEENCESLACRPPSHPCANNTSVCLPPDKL

[1] = intravenously administered, rodent and feline species; cited from earlier work
[2] = cited from earlier work
[3] = biological target: T2, human liver alpha-L-fucosidase (Homo sapiens, UniProt P04066); conditions: ref [12]; cited from earlier work
T2 sequence (P04066 32-466): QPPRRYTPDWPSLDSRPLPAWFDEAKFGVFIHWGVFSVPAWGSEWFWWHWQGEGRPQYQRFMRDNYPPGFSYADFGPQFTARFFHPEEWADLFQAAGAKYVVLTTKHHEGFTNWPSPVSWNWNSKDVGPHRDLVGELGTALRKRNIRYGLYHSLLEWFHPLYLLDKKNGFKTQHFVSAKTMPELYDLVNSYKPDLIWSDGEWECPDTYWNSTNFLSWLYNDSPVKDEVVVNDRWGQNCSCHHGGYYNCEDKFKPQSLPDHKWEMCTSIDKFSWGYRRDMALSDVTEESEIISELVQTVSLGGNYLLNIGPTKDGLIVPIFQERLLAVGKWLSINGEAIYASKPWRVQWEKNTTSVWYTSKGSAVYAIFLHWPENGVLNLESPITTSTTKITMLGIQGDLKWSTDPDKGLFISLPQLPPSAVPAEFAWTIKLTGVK

lysosomal fucosidase = biological target: T3, lysosomal fucosidase (Homo sapiens, UniProt P04066); experiment: fucosidase activity in lysates of treated HepG2 cells (4-MU-fucopyranoside); type: cell-based; conditions: 72 hours, versus buffer
T3 construct: Fucosidase activity in 20 μL of each lysate sample was measured; endogenous in cells; host or cells: HepG2
T3 sequence (P04066 32-466): T2 sequence (P04066 32-466)
Method: HepG2 human hepatocellular carcinoma cells were seeded in 6-well tissue culture plates at 4×10^5 per well. […] Cells were then washed with cold PBS, scraped into a microfuge tube, pelleted and lysed. Total protein concentration was determined by Bradford assay for each sample and lysate volumes adjusted to 0.3 mg/mL. Fucosidase activity in 20 μL of each lysate sample was measured by adding 100 μL of 0.5 mM 4-MU-fucopyranoside with subsequent incubation at 37° C. for 30 minutes. Reactions were quenched with 130 μL of 600 mM citrate/carbonate buffer at pH 9. Released 4-MU was assayed in a fluorescence microplate reader (see Example 1 above). […] Duplicate sample activity values were averaged and plotted.

Molecule: mRAP14c: RAP residues 250-309 with substitutions F250C, L308G and Q309C (CEAKIEKHNHYQKQLEIAHEKLRHAESVGDGERVSRSREKHALLEGRTKELGYTVKKHGC; disulfide 1-60 (inferred))
Kd (LRP1): ~21 nM

Molecule: RAP: mature receptor associated protein, 323 amino acid peptide, SEQ ID NO: 1
toxicity [1]: no measurable toxicity
circulating half-life ([2]; injected RAP, intravenous): less than a minute
exogenous RAP accumulating in the liver ([2]; intravenous bolus injection of 30 picomoles, within 10 minutes): over 70%
accumulation in heart, brain, muscle or kidney ([2]; intravenous): < 1 % of injected dose

Molecule: CCCCN1C[C@H](O)[C@@H](O)[C@H](O)[C@H](C(=O)O)C1 [Faz, (3R,4R,5S,6S)-1-butyl-4,5,6-trihydroxyazepane-3-carboxylic acid]
potency of fucosidase inhibition [3]: low nanomolar range

inhibition at 30 µM (lysosomal fucosidase): > 50%
Molecule: C[C@@H]1NC[C@@H](O)[C@H](O)[C@@H]1O [L-deoxyfuconojirimycin]

B1: mRAPc: RAP d3 with the modifications A242G, R314G, E241C and I315C (peptide)
chain: CGFREELKHFEAKIEKHNHYQKQLEIAHEKLRHAESVGDGERVSRSREKHALLEGRTKELGYTVKKHLQDLSGGC
Kd (LRP1): ~10 nM
